Data: patent US20210253734A1

B1: monoclonal antibody IM-CA22 (antibody, V domains shown)
VH: QIQLQQSGPELVKPGTSVKLSCKASGYTFTDYYINWVKQRPGQGLEWIGWIYPGSGNPIYNENFKDKATLTVDTSSTTAYLQLSSLTSEDSAVYFCAREWGCAMDSWGQGTSVTVSS
VL: DIVMTQSPSSLSVSTGEKVTMSCKSSQSLLNSGNQKNYLAWYQQKPGQSPKLLIYGASTRESGVPDRFTGSGSGTEFTLTISSVQAEDLAVYYCQSDYSHPYTFGGGTKLEIK

What was measured:
[1] = biological target: human Trypsin (Sigma) (human) (UniProt P07477); test: cell-based or functional assay
[2] = biological target: AS-SPIK (Abnormal Secreted serine protease inhibitor Kazal), purified or partially purified from the medium of S2-3 cells (human) (UniProt P00995); test: cell-based or functional assay

inhibition of trypsin digestion of 1 uM BML (Boc-Gln-Ala-Arg-AMC) after 60 minutes, 3 nM AS-SPIK and 2 ng/ml trypsin [1]	restoration of Trypsin activity (inhibition of AS-SPIK activity) at 60 minutes, 1 ug/ml IM-CA22 pre-incubated with 3 nM AS-SPIK [2]	Molecule
70%		AS-SPIK (Abnormal Secreted serine protease inhibitor Kazal), purified or partially purified from the medium of S2-3 cells (from UniProt P00995 24-79)
	> 60%	B1
